In article PMC4635569 (2015) one finds Kd data, which are given here for one molecule.

The target of this experiment is human C3d (human, UniProt P01024 1002-1303). As to the kind of experiment: SPR. Background: SPR reads the build-up and loss of mass on a sensor chip optically.
Sequence of human C3d (P01024 1002-1303): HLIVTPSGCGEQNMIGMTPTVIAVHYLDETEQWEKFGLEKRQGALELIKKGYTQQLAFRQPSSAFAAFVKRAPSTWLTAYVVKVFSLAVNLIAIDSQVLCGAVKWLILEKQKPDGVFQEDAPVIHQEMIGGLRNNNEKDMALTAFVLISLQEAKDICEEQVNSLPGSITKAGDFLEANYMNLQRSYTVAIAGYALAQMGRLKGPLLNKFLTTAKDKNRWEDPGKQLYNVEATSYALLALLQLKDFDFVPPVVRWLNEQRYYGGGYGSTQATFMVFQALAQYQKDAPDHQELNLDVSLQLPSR

B1: (D39)PspCN:FH complex (plasma-derived FH) (complex)
chain 1: EDCNELPPRRNTEILTGSWSDQTYPEGTQAIYKCRPGYRSLGNVIMVCRKGEWVALNPLRKCQKRPCGHPGDTPFGTFTLTGGNVFEYGVKAVYTCNEGYQLLGEINYRECDTDGWTNDIPICEVVKCLPVTAPENGKIVSSAMEPDREYHFGQAVRFVCNSGYKIEGDEEMHCSDDGFWSKEKPKCVEISCKSPDVINGSPISQKIIYKENERFQYKCNMGYEYSERGDAVCTESGWRPLPSCEEKSCDNPYIPNGDYSPLRIKHRTGDEITYQCRNGFYPATRGNTAKCTSTGWIPAPRCTLKPCDYPDIKHGGLYHENMRRPYFPVAVGKYYSYYCDEHFETPSGSYWDHIHCTQDGWSPAVPCLRKCYFPYLENGYNQNYGRKFVQGKSIDVACHPGYALPKAQTTVTCMENGWSPTPRCIRVKTCSKSSIDIENGFISESQYTYALKEKAKYQCKLGYVTADGETSGSITCGKDGWSAQPTCIKSCDIPVFMNARTKNDFTWFKLNDTLDYECHDGYESNTGSTTGSIVCGYNGWSDLPICYERECELPKIDVHLVPDRKKDQYKVGEVLKFSCKPGFTIVGPNSVQCYHFGLSPDLPICKEQVQSCGPPPELLNGNVKEKTKEEYGHSEVVEYYCNPRFLMKGPNKIQCVDGEWTTLPVCIVEESTCGDIPELEHGWAQLSSPPYYYGDSVEFNCSESFTMIGHRSITCIHGVWTQLPQCVAIDKLKKCKSSNLIILEEHLKNKKEFDHNSNIRYRCRGKEGWIHTVCINGRWDPEVNCSMAQIQLCPPPPQIPNSHNMTTTLNYRDGEKVSVLCQENYLIQEGEEITCKDGRWQSIPLCVEKIPCSQPPQIEHGTINSSRSSQESYAHGTKLSYTCEGGFRISEENETTCYMGKWSSPPQCEGLPCKSPPEISHGVVAHMSDSYQYGEEVTYKCFEGFGIDGPAIAKCLGEKWSHPPSCIKTDCLSLPSFENAIPMGEKKDVYKAGEQVTYTCATYYKMDGASNVTCINSRWTGRPTCRDTSCVNPPTVQNAYIVSRQMSKYPSGERVRYQCRSPYEMFGDEEVMCLNGNWTEPPQCKDSTGKCGPPPPIDNGDITSFPLSVYAPASSVEYQCQNLYQLEGNKRITCRNGQWSEPPKCLHPCVISREIMENYNIALRWTAKQKLYSRTGESVEFVCKRGYRLSSRSHTLRTTCWDGKLEYPTCAKR
chain 2: ATENEGSTQAATSSNMAKTEHRKAAKQVVDEYIEKMLREIQLDRRKHTQNVALNIKLSAIKTKYLRELNVLEEKSKDELPSEIKAKLDAAFEKFKKDTLKPGEK
Take B1: the equilibrium dissociation constant (Kd) is 2000 nM.

In general, Kd refers to the equilibrium constant for the complex coming apart. Low values mean a tighter complex, high ones a looser complex.
